Measured values: US20200140538A1 (INSTITUTE FOR BASIC SCIENCE, published 2020)

How the values were obtained:
[1] = molecular target: T1, human interleukin-2 (hIL-2) (human, UniProt P60568 21-153); test: ELISA on plate coated with hIL-2 (5 µg/ml), titrated mAb, detection with anti-mouse IgG HRP or anti-rat IgG HRP
T1 construct: mature; The 133-residue length in the definition corresponds to the mature protein; also called human IL-2

mouse IL-2 (mIL-2) = molecular target: T2, mouse IL-2 (mIL-2) (mouse, UniProt P04351 21-169); test: ELISA on plate coated with mIL-2 (5 µg/ml), titrated mAb, detection with anti-mouse IgG HRP or anti-rat IgG HRP
T2 construct: Coated on the ELISA plate at 5 ug/ml
T2 sequence (looked up): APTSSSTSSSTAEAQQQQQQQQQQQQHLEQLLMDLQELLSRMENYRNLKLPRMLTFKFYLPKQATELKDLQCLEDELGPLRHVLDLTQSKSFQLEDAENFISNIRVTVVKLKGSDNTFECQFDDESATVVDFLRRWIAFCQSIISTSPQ
Protocol: In vivo mouse models were used to evaluate the therapeutic efficacy of a hIL-2/TCB2 mAb complex. […] First, the splenocytes of BALB/c mice immunized 3-4 times with hIL-2 over several weeks were fused with SP/2 myeloma cells. When the hybridoma colony was visualized, the culture supernatant was subjected to ELISA. 5 μg/ml of hIL-2 or mIL-2 was added to and mixed with PBS, and a total of 50 μl of the mixture was coated on an ELISA plate. Next, 200 μl of 10% FBS was added to the PBS and incubated at room temperature for 30 minutes in order to prevent non-specific binding, and a titrated dose of the monoclonal antibody was incubated for 30 minutes. The binding of the monoclonal antibody to the coated hIL-2 or mIL-2 was detected with anti-mouse IgG HRP or anti-rat IgG HRP. In each step, the plate was washed 3-5 times with 200 μl of PBS. As positive controls, commercially available monoclonal antibodies were used. As a positive control for hIL-2, Mab602 was used, and as positive controls for mIL-2, JES6-1 and S4B6 were used.

[2] = molecular target: T1, human interleukin-2 (hIL-2); test: SPR, Biacore T100; antibody immobilized on a CM5 chip by amine coupling, hIL-2 flowed as 2-fold dilutions from 100 nM
Protocol: For detection of hIL-2, […] was used. 900 RU (Rmax=90) of anti-hIL-2 clones were immobilized on a CM5 chip by amine coupling. A 2-fold dilution (100 nM) of hIL-2 was allowed to flow on the chip at a rate of 10 μl/min for 3 minutes, and then dissociation of the hIL-2 was monitored for 10 minutes.

[3] = molecular target: T1, human interleukin-2 (hIL-2); test: kinetic affinity for hIL-2, Set 1; method not given
[4] = molecular target: T1, human interleukin-2 (hIL-2); test: kinetic affinity for hIL-2, Set 1; method not given; Set 1
[5] = molecular target: T1, human interleukin-2 (hIL-2); test: kinetic affinity for hIL-2, Set 2; method not given

T1 sequence (P60568 21-153): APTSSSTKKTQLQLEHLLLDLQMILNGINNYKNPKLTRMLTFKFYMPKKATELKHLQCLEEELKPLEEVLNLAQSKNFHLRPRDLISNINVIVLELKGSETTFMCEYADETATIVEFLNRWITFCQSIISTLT

B1: MAB602 (antibody, from another filing, V domains shown)
VH: EVQLQESGPGLVAPSQSLSITCTVSGFSLTNYDISWIRQPPGKGLEWLGVIWTGGGTNYNSGFMSRLSITKDNSKSQVFLKMNSLQTDDTAIYYCVRQGRTPYWGQGTLVTVSA
VL: DIQVTQSPSSLSVSLGDRVTITCKASKDIYNRLAWYQQKPGNAPRLLISGATSLETGVPSRFSGSGSGKDYTLTITSLQTEDVATYYCQQFWGTPYTFGGGTKLEIKR
- EC50 (read off the curve) [1]: 0.04 µg/mL
- EC50 (read off the curve) (mouse IL-2 (mIL-2)): 0.03 µg/mL
- Kd [2]: 0.213 nM
- koff [2]: 0.000948 s⁻¹
- kon [2]: 4.43e+06 M⁻¹ s⁻¹

B2: TCB2 monoclonal antibody (mouse TCB2) (antibody, V domains shown)
VH: EVQLQQSGAELARPGASVKLSCKASGYTFTTYWIQWVKQRPGQGLEWIGAIYPGDGDTRYIQNFKGKATLTADKSSSTAYMQLSSLASEDSAVYYCARSLATRGFYAMDYWGQGTSVTVSS
VL: DIVMTQSPASLSMAIGEKVTIRCITSTDIDDDMNWYQQKPGEPPKLLISEGNTLRPGVPSRFSSSGYGTDFVFTIENMLSEDVADYYCLQSDNLPYTFGGGTKLEIK
notes: Mouse hybridoma antibody from BALB/c mice immunized with hIL-2; It was detected with anti-mouse IgG HRP; also called TCB2 mAb; mTCB2
- binding result (mouse IL-2 (mIL-2)): no binding (tested: 10000 ng/ml)
- Kd [2]: 0.0811 nM
- koff [2]: 0.000419 s⁻¹
- kon [2]: 5.17e+06 M⁻¹ s⁻¹

B3: human chimeric TCB2 (antibody, human IgG2, kappa, V domains shown)
VH: EVQLQQSGAELARPGASVKLSCKASGYTFTTYWIQWVKQRPGQGLEWIGAIYPGDGDTRYIQNFKGKATLTADKSSSTAYMQLSSLASEDSAVYYCARSLATRGFYAMDYWGQGTSVTVSS
VL: DIVMTQSPASLSMAIGEKVTIRCITSTDIDDDMNWYQQKPGEPPKLLISEGNTLRPGVPSRFSSSGYGTDFVFTIENMLSEDVADYYCLQSDNLPYTFGGGTKLEIKR
notes: The Fab region of TCB2 mAb was cloned into an IgG2 expression vector; also called hcTCB2
- Kd [3]: 0.0717 nM
- koff [3]: 0.00163 s⁻¹
- kon [4]: 2.27e+07 M⁻¹ s⁻¹
- Kd [5]: 0.0616 nM
- koff [5]: 0.00141 s⁻¹
- kon [5]: 2.29e+07 M⁻¹ s⁻¹

B4: S4B6 (antibody, V domains shown)
VH: EVQLQESGAELVRPGTSVKLSCKVSGDTITAYYLHFVRQRPGQGLEWIGRIDPEDDSTKYAENFKNKATFTADASSNTAYLRLSSLTSEDTATYFCTTVTFYYSRELRWFAYWGQGTLVTVSS
VL: DIQVTQSPASLSASLEEIVTITCQASQDIGNYLSWYQQKLGKSPQLLIHSATSLADGVPSRFSGSRSGTQYSLKINRLQVEDTGIYYCLQHYSTPYTFGAGTKLELK
- EC50 (read off the curve) (mouse IL-2 (mIL-2)): ~0.3 µg/mL

B5: humanized TCB2 clone VH1+VL2 (antibody, V domains shown)
VH: QVQLVQSGAEVKKPGASVKVSCKASGYTFTTYWIQWVRQAPGQGLEWMGAIYPGDGDTRYIQNFKGRVTMTRDTSTSTVYMELSSLRSEDTAVYYCARSLATRGFYAMDYWGQGTLVTVSS
VL: DIVMTQSPSSLSASVGDRVTIRCITSTDIDDDMNWYQQKPGKAPKLLISEGNTLRPGVPSRFSGSGYGTDFTFTISSLQPEDIADYYCLQSDNLPYTFGGGTKLEIK
notes: Humanized and expressed with human IgG1 Fc; also called VL2+VH1; hnTCB2
- Kd [3]: 0.104 nM
- koff [3]: 0.00197 s⁻¹
- kon [3]: 1.89e+07 M⁻¹ s⁻¹

B6: humanized TCB2 clone AH03463 (VL03463+VH03463) (antibody, V domains shown)
VH: EVQLVQSGAEVKKPGASVKVSCKASGYTFTTYWIQWVKQAPGQGLEWMGAIYPGDGDTRYIQNFKGRVTMTRDTSTSTVYMELSSLRSEDTAVYYCARSLATRGFYAMDYWGQGTLVTVSS
VL: DIQMTQSPSSLSASVGDRVTITCITSTDIDDDMNWYQQKPGKAPKLLIYEGNTLRPGVPSRFSSSGSGTDFTFTISSLQPEDIATYYCLQSDNLPYTFGGGTKLEIK
notes: Humanized and expressed with human IgG1 Fc; also called hnTCB2
- Kd [5]: 0.198 nM
- koff [5]: 0.00418 s⁻¹
- kon [5]: 2.11e+07 M⁻¹ s⁻¹

B7: humanized TCB2 clone VH2+VL2 (antibody, V domains shown)
VH: QVQLVQSGAEVKKPGASVKLSCKASGYTFTTYWIQWVKQAPGQGLEWIGAIYPGDGDTRYIQNFKGRVTMTADTSTSTVYMELSSLRSEDTAVYYCARSLATRGFYAMDYWGQGTLVTVSS
VL: DIVMTQSPSSLSASVGDRVTIRCITSTDIDDDMNWYQQKPGKAPKLLISEGNTLRPGVPSRFSGSGYGTDFTFTISSLQPEDIADYYCLQSDNLPYTFGGGTKLEIK
notes: Humanized and expressed with human IgG1 Fc; also called VL2+VH2; hnTCB2
- Kd [3]: 0.275 nM
- koff [3]: 0.00463 s⁻¹
- kon [3]: 1.68e+07 M⁻¹ s⁻¹
